# Measured values published in a protein production outcome set (Wang et al. 2014).
# Assay: label from the status in PepcDB records
# 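Also: failed if final PepcDB status was selected cloned or expressed and not failed if soluble or beyond.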
row,Sequence,protein production
1,MADPTSSERLLVTAALPYANGPIHIGHLAGAYLPADLFVRYQRLKGEDVAFICGSDEMGVAILMRAIREDRTPEDIIDTYHPQIRDNFERFGMSFDYYGRTSSETHTETTQDFFRVLDENGGFDLKTDEQLYDPEAEMFLADRFVIGTCPVCGFEEAYGDQCEQCGSSLSPTELENPQSTLTDATPEFKETTHWYLPLGELQPQLEEWIGSHPEWKNNVVGQIQSWFDEGLKGRAITRDVLWGVPVPDDVAERHGLEAEGKVIYVWFDAPIGYISATKEWAAEQGEPDAWTDYWQDEDTRLVHFIGKDNIVFHCLMFPSMLMEHGDYVLPDNVPANEFLNLEGEKLSTSRGWAVWLHEYLDDFADERHAPDLLRYALATTLPETKDADFSWEGFQQRVNGELANVFGNFVHRTLTFAQRYFDGTVPPLEDPSEADRVMLDRMAEVPDTVGAAYEEHRTRDAVFETMALARRGNKYFNDTEPWHTHESDPQACANTIHVSLQVCAALSILFEPVLPSAAATLRERIGLENVRTSTPDDDPAGAVGWEDAGAPLLPAGHPIPSGPDPEPLFQKIDDDTIEAQIEKLRDRAAERDTDPSSTTDMDYEALSDNISFDDFTQLDLRAGTVTTAEPVPDADKLLRLEVDLGFEERQILAGVAEQMAPDDVVGLEVVVVANMAPKEMFGFESQGMVLMAEEPDGTFVPVTTEAEDGSVVR,failed
2,MADRPIEIVDRQNVLTVHLPGTYTVMYDARYCYVSYIPVSETVAEFTLTGFKYPLTNCHISRGSTLCISNELIQSSGTFSFSEGILMMIRSSDSLEHHHHHH,failed
3,MADRQLLHTAHIPVRWGDMDSYGHVNNTLYFQYLEEARVAWFETLGIDLEGAAEGPVVLQSLHTYLKPVVHPATVVVELYAGRLGTSSLVLEHRLHTLEDPQGTYGEGHCKLVWVRHAENRSTPVPDSIRAAIA,not failed
4,MADSDSNEVLIEEIDSNDVPENELEQFQETEPLRVVDIIDCDTDGERRCIADDEEEGALIKRYVQGVQCLEFPDFCTKLEASDEDEEGNDEEPSEAAGSIEKPNTSAQAKTSQEQSTGSGRSGGGGFRKSQLSTALQGLMGEANLSFVYGRYETAERICMEIIRQNPLASEPFYTLAEIYENRDEVKFLNFSTLAAHLNPQDRDMWIRVSDLLVQQGNLARARLIYTKAIKMLPKVYQLRLRKAQLLQKMGETNASMFTYLKMLPLMPPDEWKMCLNTAKNVARYFHVLEKHSLALEAMEGAYSVCGARFTLEDINIYLELLILNKQYAKVLRCLRERTNFELENDQEESLELIYFCEIPDDYVPELRAKLCVSLIHMRAHHLLGYLIQNVQEHITLTADRVELYMDITEALMQEHKYAEAIALMSPITDGDTVECPAFVWLRQAECLRQLNRTNEAIQSYEKVVQLAPFCYDARFTLSALLKQQGRHEEAVQALEQPGEAEGQPLIARLLYERCVMLQQIGRIEEFLDVGYALLSRHSIKLYNREEMMAAANGGSAYNSESLKTIIQMRSKAVDNSAEQDLQDPAKNAASETSDLTVKDEFELFRELVRTAFKHGMHSAAEKICFAMVTTKRFTYYHHEIERIMVLTCYYNDDCAIAFSYLRELIAKQPSQTTLWNMLSLMIQKGDEVRYYRYMRRLMQRHPVDTKPMRIFQGHYHLNCASFKYALNIYMPILRENPDPLVALCIAVAFNQLSLQKKVLRKSASVAQAVAFGQRYKELRSAGHELADCAAQQEIFYNIGRIYHQANILHLAVDYYEKALAVPVHPLIAEHESTLGLQHEVAFNLHLIYRANGNKWKARQYLMRYCVV,failed
5,MADSIKSSNSFQKLDNIDAKETSTVDRKWVALTAYQPVDVVTKTVEVPIIKTVEKYVPKTIIQEKIIHVPKNVTHIVEKIVEVPEVKYIEKIVEVPHIHYKNKYVPKIEIVEKVVERQKIIEKWHDKIVEVPQIKEVVRFKQIEDSEEIIKYVPRNSKNIDWEDEYKKYTESKGLQRYSLDQNNIYQQANSFNQFNENAYNQNAFNRSYELLNKQSSVKSQNNASGENFSQMNFYNQYSGANFEQERSIQASNFEPSGSMQLKRLSSEEIKPAGCCSAACT,failed
6,MADSKSFTFELNESVLTAQVGRLDEMAMVVEQRFSELKMTIEDVGNADPGSKISESLGGLQSGLGTISSAFGQLGSSSEAITSGFGTAVGSVGGITDAFKNLGSSVQNGTLFSSLATGIGGMSTMLGGVSGGVQGITNLASGFMELKNHLGGLMSSIGGVGGIMGKLTSPMGLVIIGIVALVAAFAYLMTTNESFRNTVMSVVTQVAQLFGQLVASLMPIIMQIVTAVMQIGAALMPMVMQFISFFAQLLAQLMPFINMLISMLMPVIMQIVQVVMSLVSALLPSIMTVIQGIMSVIQFLIPIIMQIATVVVQIVVTIISYISKIMPIVMTIIGVIVSIITTIISYVVIIATTIASVIGKIISFIASVITAVIGIVQPIIAFITNIFTTIVTIIGAAFQMVFTVASKIWNSIMSTISGIIDGIKAVITGISTTVSSVFNGVKRIITGVFDGIKSAWGGLTDFVGNIFDGVSSAIQTVVDNVKGFVNVVIRGINGAIGLINKIPGVEIGKIPQLISGTTNFQGGFARMNEGGRGEMVVLPSGSQVIPHDATMKYARESARGNKSMLYTSQGADLARVENLLERLLQKNPVIKMDDKVVAEVVSRNQANSFDQYNYTMGGAAYS,not failed
7,MADSLAGIDQVTSLHKNNELQLLCFRLGKNKDLYAVNVFKIREVVKYHGNLTIISHENNSLVEGLIIIRELTIPLIDMKKWFYYDSQNKNKDLRPYRIEKEKGEDDIVMICEFSRWTIGVRIYEADRILSKKWTEMEQSAGLGGSAGNNKLVSRTRYFDGRLVQVVDIEKMLIDVFPWIEDEKHNDLETLSKIHSNQCVLLADDSPSVLKTMQMILDKLGVKHIDFINGKTLLEHLFNPTTDVSNIGLIITDLEMPEASGFEVIKQVKNNPLTSKIPIVVNSSMSGSSNEDMARSLKADDFISKSNPKDIQRVVKQFLELA,failed
8,MADSRQAQGPGKSVLGIGQRIVTIIVEMVETRLRLAVVELEEEKANLFQLLLMVGLTMLFAAFGLMSLMVLVIWAIDPQYRLNAMIATTVVLLVLALIGGIWTLRKARQSTLLRHTRHELANDRQILEDDQS,failed
9,MADSSRADFWEQRYREGVTPWEGGQLPPRARAFFAAQRPLRVLMPGCGSAADLPPLLAMGHDVLAVDFSEAAIELAARQWPEAAGRLLLADFFQLQMPAFDCLFERAFLCALPVGMRSQYAERVAALIAPGGALAGVFFVADTERGPPFGMQAEALRELLSPWFELEEDLALDESVAVFRNRERWMVWRRRGFDLGQVSEHESTGNCGAHRKE,failed
10,MADVAVLNIDSVICVNKNNDKSTPLTQLFLVLVAAESFYPTRRFVGIRVKRRQHQHLLESLVHSTAKQQGDFTKTAELATELLCQNLAVSLVSIWIFSADQGTQSLVAQFGSMALQDTYRPSLLHTVPRYLNELKNYRHIDAGNTLIDPRLTELVDSYFIPRQILSSLDVGIRINGHLEGVLCIERAQVTHHWHDSEIHLACQMADQLALTLATKHAYDKEERLSLFRCAIEQSRQMSMLINLHTEKVEYVNQAHEDITGIARDKSIGTNLRDLTFFRQHNALAEQTLAKIFRGDQAKGEVQFSRTDGSRYWLKYIVSQFITDRGNHYALVSGEENSDEHNYKAELERLAWRCGLTGLNNRSHFNRVLERTTHGLLLLVDLVAFKRFNDTYGHENGDSLLIEVGRRLKHFSEINKATEIARVGSDEFAVLLTDDNAVYDLDYFSTRLYQHLAMPILIGREQVEPKPALAVVDIASVANLFAPLTCADIAVQYAKKKKGTAIQVFNSTLLSAFKEDAQIERDLHSAIRGRQFELYYQPLRDLEQQTYIGAEALIRWHHPKKGVLYPGAFIDIAEQSGMINAIGSWVLEAACRQLNIWQHHNADLSMHVNVSARQFFSGNLYEQVWQLLTRYRLKPKTLILEITETELMGDIRHATLLCQELAELGVGLAIDDFGTGYSSMRYLKQFPISKLKIDRSFISDLTISRESQEIVSAIIAMANALNISLTAEGVETAEQEAFLAKSLCHQAQGFLYSPALREPEFAQFLLTAKQPNLIAH,failed
11,MADWTRAQSSGAVEEILDRENKRMADSLASKVTRLKSLALDIDRDTEDQNRYLDGMDSDFTSVTGLLTGSVKRFSTVARSGRDNRKLLCGMAVVLIVAFFILSYLLSRTRT,failed
12,MAEAIFALDVGTRKVAGLVLAQGKKGYHIQAAAVVEHQQRAMLDGQIHDIPQVALAIQDVKGQLEKKLHISLKEAAVAAAGRALKTWRASATSQLSPAQEIAPQAVLALEAAAVQEAEKLLLEASEQPLAYHCVGYSVVGYNLDGHPIGNLVGQRGQSMTAEVIATFLPRVVVDSLVTALERAGLAMHSLTLEPIAASAVAVPAAMRGLNLALVDIGAGTSDIAITGQGTISGYAMVPSAGDEITEALASALILDFNTAERVKRQLSTRENLTFTDVVGQRHTLAAAELMEIIKPAVTELARQVATQIILLNGKPPQAVLLIGGGSLTPGLAAALAGQLEISPERVAVRGREVLNGISGAKNLQGPQAITPIGIAITALKREGLGLARVIVNGRPVHFLAGQQMTVTQALLAAGIPARHLYGRPGRGLGVEVNGRLTFLRGQPGEPGKILVNEAPATLETVVKAGDHIIVTPGRDGADAWGTVGDLVPELAPKTITFNGRRITLEPEIIMNGNRVDYRTPVQDQARITYNPLDTVARVLEYLGEPLDGPVLLNGQQVRPEAPIKDGDNLVTGAGATGRNINITINGRPATLRVQAGEALFTDVFNYLDFPSSPPPGRKTLVMEVNGRPAEFTTPLAEGDAVTLRWDP,failed
13,MAEASPQPGRYFCHCCSVEIVPRLPDYICPRCESGFIEELPEETRNTENGSAPSTAPTDQNRQPFENVDQHLFTLPQGYSQFAFGIFDDSFEIPTFPPGAQADDGRDPESRREREHQSRHRYGARQPRARLTARRATGRHEGVPTLEGIIQQLVNGIISPAAVPSLGLGPWGVLHSNPMDYAWGANGLDTIITQLLNQFENTGPPPADKEKIQALPTVPVTEEHVGSGLECPVCKEDYALGESVRQLPCNHLFHDSCIVPWLEQHDSCPVCRKSLTGQNTATNPPGLTGVGFSSSSSSSSSSSPSNENATSNS,not failed
14,MAEEEVGNSQRQSEEIEAMAAIYGEEWCVIDENAKIFCIRVTDFMDDPKWTLCLQVMLPSEYPGTAPPSYQLNAPWLKGQERADLSNSLEEIYVHNMGESILYQWVEKIRDALIQKSQITEPDPDVKKKTEEVEVESEEDPILEHPPENPVKTLDLKISEETQPETEELPPVAHGVPITDRRSTFQAHVAPVVCPEQVKLVLAKLYENKKIASATHNIYAYRIFCEDKQTFLQDCEDDGETAAGGRLLHLMEILNVKNVMVVVSRWYGGILLGPDRFKHINNCARNILVEKNFTNTPDESTKNLGKKKVKKDKKKNDH,failed
15,MAEFPASLLILNGKSTDNLPLREAIMLLREEGMTIHVRVTWEKGDAARYVEEARKFGVATVIAGGGDGTINEVSTALIQCEGDDIPALGILPLGTANDFATSVGIPEALDKALKLAIAGDAIAIDMAQVNKQTCFINMATGGFGTRITTETPEKLKAALGSVSYIIHGLMRMDTLQPDRCEIRGENFHWQGDALVIGIGNGRQAGGGQQLCPNALINDGLLQLRIFTGDEILPALVSTLKSDEDNPNIIEGASSWFDIQAPHDITFNLDGEPLSGQNFHIEILPAALRCRLPPDCPLLR,not failed
16,MAEHPIQGLMETAMESIKEMVDVNTIVGDAVQAPDGTVIIPISKVTFGFAAGGGEFASCCSVDEKGEDSSDDSSKPEIKFPFAGGSGAGVSINPVAFMVVGQGQIKLLPVNINSSLEKILDLIPEIIEKTKDSVKKNLKVKKEIKPGNGESCAKSSKEDENELEHHHHHH,not failed
